Data on one molecule can be found in article PMC11240982, “Recapitulation of HIV-1 Neutralization Breadth in Plasma by the Combination of Two Broadly Neutralizing Antibodies from Different Lineages in the Same SHIV-Infected Rhesus Macaque” (International Journal of Molecular Sciences, 2024).

In this test the target is T1, BG505 Env UFO (uncleaved prefusion-optimized) trimer with Avi tag (HIV-1 clade A, BG505, stabilised).
T1 construct: also called BG505 UFO trimer; BG505 UFO
The test can be described thus: BLI; antibody (20 µg/mL) immobilised on Anti-hIgG-Fc Capture (AHC) biosensors; serially diluted BG505 UFO trimer or V3 peptide as analyte; OCTET Red96. To be noted: both partners purified.

B1: JT18 (antibody, V domains shown)
VH: EVQLVQSGAEVKRPGESLRISCKTSGYDFTDYWINWVRQMPGKGLEWVGMVYPSDSETAYSPSFRGRVTISADTSISTSYLQWTSLEASDTATYYCARPVSGTFALDVWGRGVLVAVSS
VL: QSVLTQPPSMSGAPGQRVTMSCTGGNSNIGANLYVQWYQQVPGTAPRLLIYEDNQRPSGVSDRFSGSRSGSSASLTITGLQSEDEADYYCQSYDNSLSTVLFGGGTRLTVL
notes: IGHV5-20*02, IGHJ5-2*02, IGHD1-44*02, CDR3 12 aa; constant region added, not specified; IGLV1S1*01, IGLJ3*01, CDR3 11 aa; Recombinant IgG; constant regions not specified (captured on anti-human IgG Fc biosensors, detected with anti-monkey IgG); source: HEK293T, co-transfected linear expression fragments, in supernatant (screen); Expi293F, co-transfected plasmids, purified (protein A agarose)
Regarding B1, the Kd was 4.03 nM.
